Assay results as given in IntAct's records for PubMed 20708613.

B1: Voltage-gated delayed rectifier potassium channel KCNH1 (Homo sapiens), O95259-2 (parent)
chain: MTMAGGRRGLVAPQNTFLENIVRRSNDTNFVLGNAQIVDWPIVYSNDGFCKLSGYHRAEVMQKSSTCSFMYGELTDKDTIEKVRQTFENYEMNSFEILMYKKNRTPVWFFVKIAPIRNEQDKVVLFLCTFSDITAFKQPIEDDSCKGWGKFARLTRALTSSRGVLQQLAPSVQKGENVHKHSRLAEVLQLGSDILPQYKQEAPKTPPHIILHYCVFKTTWDWIILILTFYTAILVPYNVSFKTRQNNVAWLVVDSIVDVIFLVDIVLNFHTTFVGPAGEVISDPKLIRMNYLKTWFVIDLLSCLPYDVINAFENVDEGISSLFSSLKVVRLLRLGRVARKLDHYIEYGAAVLVLLVCVFGLAAHWMACIWYSIGDYEIFDEDTKTIRNNSWLYQLAMDIGTPYQFNGSGSGKWEGGPSKNSVYISSLYFTMTSLTSVGFGNIAPSTDIEKIFAVAIMMIGSLLYATIFGNVTTIFQQMYANTNRYHEMLNSVRDFLKLYQVPKGLSERVMDYIVSTWSMSRGIDTEKVLQICPKDMRADICVHLNRKVFKEHPAFRLASDGCLRALAMEFQTVHCAPGDLIYHAGESVDSLCFVVSGSLEVIQDDEVVAILGKGDVFGDVFWKEATLAQSCANVRALTYCDLHVIKRDALQKVLEFYTAFSHSFSRNLILTYNLRKRIVFRKISDVKREEEERMKRKNEAPLILPPDHPVRRLFQRFRQQKEARLAAERGGRDLDDLDVEKGNVLTEHASANHSLVKASVVTVRESPATPVSFQAASTSGVPDHAKLQAPGSECLGPKGGGGDCAKRKSWARFKDACGKSEDWNKVSKAESMETLPERTKASGEATLKKTDSCDSGITKSDLRLDNVGEARSPQDRSPILAEVKHSFYPIPEQTLQATVLEVRHELKEDIKALNAKMTNIEKQLSEILRILTSRRSSQSPQELFEISRPQSPESERDIFGAS
partner: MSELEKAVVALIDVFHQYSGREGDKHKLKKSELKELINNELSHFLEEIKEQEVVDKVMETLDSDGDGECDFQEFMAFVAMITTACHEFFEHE

Variants of: B1
Settings: with S100B

Row | Variant | effect of a mutation on the interaction
1 | F714S | disrupting interaction
2 | F717S | disrupting interaction

Variants of: B1
Settings: with S100B
Remark: another data set of the same source

Row | Variant | effect of a mutation on the interaction
3 | R677N | disrupting interaction
4 | K682N | disrupting interaction
5 | R681N | disrupting interaction
6 | R675N | disrupting interaction
